Reference: patent US20230265151A1, “GIP/GLP1 CO-AGONIST COMPOUNDS” (priority 2020, published 2023)
Where a chain is given by its changes, count along the chain named.

B1: Example 363 (peptide)
peptide: YXEGTXTSDYXIXLDXIAQXEFIKXLIKGGPSSGAPPPS
modifications: Y-Aib-EGT-αMeF(2F)-TSDY-Aib-I-αMeL-LD-Orn-IAQ-Aib-EFIK((2-[2-(2-Amino-ethoxy)-ethoxy]-acetyl)2-(γ-Glu)-(2-[2-(2-Amino-ethoxy)-ethoxy]-acetyl)-CO-(CH2)12-CO2H)-αMeY-LIK((2-[2-(2-Amino-ethoxy)-ethoxy]-acetyl)2-(γ-Glu)-(2-[2-(2-Amino-ethoxy)-ethoxy]-acetyl)-CO-(CH2)12-CO2H)GGPSSGAPPPS-NH2
B2: Example 365 (peptide)
peptide: B1 peptide
modifications: Y-Aib-EGT-αMeF(2F)-TSDY-Aib-I-αMeL-LD-Orn-IAQ-Aib-EFIK((2-[2-(2-Amino-ethoxy)-ethoxy]-acetyl)-(γ-Glu)-(2-[2-(2-Amino-ethoxy)-ethoxy]-acetyl)-CO-(CH2)12-CO2H)-αMeY-LIK((2-[2-(2-Amino-ethoxy)-ethoxy]-acetyl)-(γ-Glu)-(2-[2-(2-Amino-ethoxy)-ethoxy]-acetyl)-CO-(CH2)12-CO2H)GGPSSGAPPPS-NH2
B3: Example 364 (peptide)
peptide: B1 peptide
modifications: Y-Aib-EGT-αMeF(2F)-TSDY-Aib-I-αMeL-LD-Orn-IAQ-Aib-EFIK((2-[2-(2-Amino-ethoxy)-ethoxy]-acetyl)-(γ-Glu)-(2-[2-(2-Amino-ethoxy)-ethoxy]-acetyl)2-CO-(CH2)12-CO2H)-αMeY-LIK((2-[2-(2-Amino-ethoxy)-ethoxy]-acetyl)-(γ-Glu)-(2-[2-(2-Amino-ethoxy)-ethoxy]-acetyl)2-CO-(CH2)12-CO2H)GGPSSGAPPPS-NH2
B4: Example 375 (peptide)
peptide: B1 peptide
modifications: Y-Aib-EGT-αMeF(2F)-TSDY-Aib-I-αMeL-LD-Orn-IAQ-Aib-EFIK((2-[2-(2-Amino-ethoxy)-ethoxy]-acetyl)-(γ-Glu)-(10-(4-carboxyphenoxy)decanoyl))-αMeY-LIK((2-[2-(2-Amino-ethoxy)-ethoxy]-acetyl)-(γ-Glu)-(10-(4-carboxyphenoxy)decanoyl))GGPSSGAPPPS-NH2
B5: Example 449 (peptide)
peptide: B1 peptide with Y10X, I17Q, E21X
modifications: not fully specified; Y-Aib-EGT-αMeF(2F)-TSD-4Pal-Aib-I-αMeL-LD-Orn-QAQ-Aib-Orn-FIK((2-[2-(2-Amino-ethoxy)-ethoxy]-acetyl)-Ahx-(γ-Glu)-CO-(CH2)12-CO2)-αMeY-LIK((2-[2-(2-Amino-ethoxy)-ethoxy]-acetyl)-Ahx-(γ-Glu)-CO-(CH2)12-CO2)GGPSSGAPPPS-NH2
B6: Example 452 (peptide)
peptide: B1 peptide with Y10X, I17Q, E21X
modifications: not fully specified; Y-Aib-EGT-αMeF(2F)-TSD-4Pal-Aib-I-αMeL-LD-Orn-QAQ-Aib-Orn-FIK(Aoc-(2-[2-(2-Amino-ethoxy)-ethoxy]-acetyl)-(γ-Glu)-CO-(CH2)12-CO2)-αMeY-LIK(Aoc-(2-[2-(2-Amino-ethoxy)-ethoxy]-acetyl)-(γ-Glu)-CO-(CH2)12-CO2)GGPSSGAPPPS-NH2
B7: Example 402 (peptide)
peptide: B1 peptide with I17Q
modifications: Y-Aib-EGT-αMeF(2F)-TSDY-Aib-I-αMeL-LD-Orn-QAQ-Aib-EFIK((2-[2-(2-Amino-ethoxy)-ethoxy]-acetyl)2-(γ-Glu)-(10-(4-carboxyphenoxy)decanoyl))-αMeY-LIK((2-[2-(2-Amino-ethoxy)-ethoxy]-acetyl)2-(γ-Glu)-(10-(4-carboxyphenoxy)decanoyl))GGPSSGAPPPS-NH2
B8: Example 441 (peptide)
peptide: B1 peptide with Y10X, I12G, I17Q, E21X
modifications: Y-Aib-EGT-αMeF(2F)-TSD-4Pal-Aib-G-αMeL-LD-Orn-QAQ-Aib-Orn-FIK((2-[2-(2-Amino-ethoxy)-ethoxy]-acetyl)2-(γ-Glu)-CO-(CH2)12-CO2H)-αMeY-LIK((2-[2-(2-Amino-ethoxy)-ethoxy]-acetyl)2-(γ-Glu)-CO-(CH2)12-CO2H)GGPSSGAPPPS-NH2
B9: Example 412 (peptide)
peptide: B1 peptide with I17Q
modifications: Y-Aib-EGT-αMeF(2F)-TSDY-Aib-I-αMeL-LD-Orn-QAQ-Aib-EFIK((2-[2-(2-Amino-ethoxy)-ethoxy]-acetyl)2-(γ-Glu)-CO-(CH2)12-CO2H)-αMeY-LIK((2-[2-(2-Amino-ethoxy)-ethoxy]-acetyl)2-(γ-Glu)-CO-(CH2)12-CO2H)GGPSSGAPPPS-NH2
B10: Example 442 (peptide)
peptide: B1 peptide with Y10X, I17Q, E21X
modifications: Y-Aib-EGT-αMeF(2F)-TSD-4Pal-Aib-I-αMeL-LD-Orn-QAQ-Aib-Orn-FIK(2-[2-(2-Amino-ethoxy)-ethoxy]-acetyl)2-(γ-Glu)-(11-(4-carboxyphenoxy)undecanoyl)-αMeY-LIK((2-[2-(2-Amino-ethoxy)-ethoxy]-acetyl)2-(γ-Glu)-(11-(4-carboxyphenoxy)undecanoyl)GGPSSGAPPPS-NH2)
B11: Example 451 (peptide)
peptide: B1 peptide with Y10X, I17Q, E21X
modifications: not fully specified; Y-Aib-EGT-αMeF(2F)-TSD-4Pal-Aib-I-αMeL-LD-Orn-QAQ-Aib-Orn-FIK(Ahx-(2-[2-(2-Amino-ethoxy)-ethoxy]-acetyl)-(γ-Glu)-CO-(CH2)12-CO2)-αMeY-LIK(Ahx-(2-[2-(2-Amino-ethoxy)-ethoxy]-acetyl)-(γ-Glu)-CO-(CH2)12-CO2)GGPSSGAPPPS-NH2

target: T1, human GIP receptor (human, UniProt P48546 22-466); assay: cell-based or functional assay
T1 sequence (looked up): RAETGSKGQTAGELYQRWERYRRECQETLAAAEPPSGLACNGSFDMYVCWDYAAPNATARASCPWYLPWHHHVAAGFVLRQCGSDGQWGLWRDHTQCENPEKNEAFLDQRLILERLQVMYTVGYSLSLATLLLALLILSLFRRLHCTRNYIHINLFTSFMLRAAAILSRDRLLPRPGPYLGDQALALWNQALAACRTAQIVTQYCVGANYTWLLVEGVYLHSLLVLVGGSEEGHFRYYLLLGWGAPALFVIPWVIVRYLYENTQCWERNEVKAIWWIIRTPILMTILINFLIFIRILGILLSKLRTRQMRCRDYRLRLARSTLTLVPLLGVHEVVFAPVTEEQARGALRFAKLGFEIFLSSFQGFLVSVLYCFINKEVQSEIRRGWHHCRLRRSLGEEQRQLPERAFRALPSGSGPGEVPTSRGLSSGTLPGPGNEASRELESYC

Going from B1 to B2, the “cAMP EC50 (1.0% HSA)” value rises from 0.976 nM to 1.93 nM (2-fold).

Going from B3 to B4, the “cAMP EC50 (1.0% HSA)” value rises from 0.895 nM to 4.68 nM (5.2-fold).

Compared with B5, B6 is 2-fold higher in “cAMP EC50 (1.0% HSA)” value: 0.595 nM for the first, 1.21 nM for the second.

B7 and B8 are within 1.5-fold of each other in “cAMP EC50 (1.0% HSA)” value: 1.11 nM for the first, 1.38 nM for the second.

Going from B9 to B10, the “cAMP EC50 (1.0% HSA)” value falls from 1.57 nM to 0.687 nM (2.3-fold).

B11 was tested, and the “cAMP EC50 (1.0% HSA)” value was 0.518 nM.

Compared with B7, B8 is lower in “cAMP Emax (1.0% HSA)” value: 84.5% for the first, 83.8% for the second.

B9 was tested, and the “cAMP Emax (1.0% HSA)” value was 87.5%.

target: human GLP-1 receptor (human, UniProt P43220 24-463); assay: cell-based or functional assay

First: B1
Second: B2
The “cAMP EC50 (1.0% HSA)” value of the first is 1.6-fold lower: 14.3 nM for the first, 22.3 nM for the second.

Compared with B3, B4 is 4.3-fold higher in “cAMP EC50 (1.0% HSA)” value: 13 nM for the first, 56.1 nM for the second.

First: B5
Second: B6
The “cAMP EC50 (1.0% HSA)” value of the first is 2.3-fold lower: 7.27 nM for the first, 16.8 nM for the second.

Compared with B7, B8 is 2.3-fold lower in “cAMP EC50 (1.0% HSA)” value: 13.5 nM for the first, 5.75 nM for the second.

Going from B9 to B10, the “cAMP EC50 (1.0% HSA)” value falls from 18.3 nM to 7.63 nM (2.4-fold).

With B11 the “cAMP EC50 (1.0% HSA)” value was 7.23 nM.

First: B2
Second: B8
The “cAMP Emax (1.0% HSA)” value of the first is lower: 91% for the first, 111% for the second.

target: human glucagon receptor (human, UniProt P47871 26-477); assay: cell-based or functional assay
Sequence (P47871 26-477): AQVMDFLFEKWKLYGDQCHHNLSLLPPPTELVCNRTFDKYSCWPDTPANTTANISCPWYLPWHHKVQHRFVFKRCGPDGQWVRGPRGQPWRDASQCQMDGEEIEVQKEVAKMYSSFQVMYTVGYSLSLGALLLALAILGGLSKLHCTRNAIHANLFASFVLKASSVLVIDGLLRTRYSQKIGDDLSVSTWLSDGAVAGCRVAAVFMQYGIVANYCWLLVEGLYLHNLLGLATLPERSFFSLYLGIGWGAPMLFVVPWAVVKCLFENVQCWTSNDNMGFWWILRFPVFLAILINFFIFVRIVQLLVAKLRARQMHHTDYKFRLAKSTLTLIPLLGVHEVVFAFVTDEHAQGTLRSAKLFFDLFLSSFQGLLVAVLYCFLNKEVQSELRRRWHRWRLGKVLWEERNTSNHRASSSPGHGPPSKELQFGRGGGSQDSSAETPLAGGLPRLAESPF

B1 and B2 cannot be ordered by “cAMP EC50 (1.0% HSA)” value: > 9950 nM for the first, > 9950 nM for the second.

B3 and B4 cannot be ordered by “cAMP EC50 (1.0% HSA)” value: > 9950 nM for the first, > 9950 nM for the second.

B5 and B6 cannot be ordered by “cAMP EC50 (1.0% HSA)” value: > 9950 nM for the first, > 9950 nM for the second.

B7 and B8 cannot be ordered by “cAMP EC50 (1.0% HSA)” value: > 9950 nM for the first, > 9950 nM for the second.

B9 and B10 cannot be ordered by “cAMP EC50 (1.0% HSA)” value: > 9950 nM for the first, > 9950 nM for the second.

B11 was tested, and the “cAMP EC50 (1.0% HSA)” value was > 9950 nM.
